This note sets out measurements from US20090202557A1 (published 2009).

Positions count from the first letter of the chain named.

In test [1] the target is recombinant human IL-18 (KG-1 bioassay) (human, UniProt Q14116 37-193). Nature of the test: cell-based or functional assay.
The target of test [2] is natural human IL-18 (whole blood assay) (human, UniProt Q14116 37-193). The test is described as follows: cell-based or functional assay.
Test [3] deals with T1, mutant human IL-18 (mature form of pro-IL-18-5C→A, cysteines mutated to alanine) (human, UniProt Q14116 37-193).
T1 construct: also called Mutant IL-18; pro-IL-18-5C→A after caspase-1 cleavage
Nature of the test: method not stated (Biacore is named later in the paragraph). Background: SPR reads the build-up and loss of mass on a sensor chip optically.

Test [4] addresses T2, murine IL-18, mature, with C-terminal V5 and His tags (mouse, UniProt P70380 36-192).
T2 construct: also called IL-18 mouse
T2 sequence: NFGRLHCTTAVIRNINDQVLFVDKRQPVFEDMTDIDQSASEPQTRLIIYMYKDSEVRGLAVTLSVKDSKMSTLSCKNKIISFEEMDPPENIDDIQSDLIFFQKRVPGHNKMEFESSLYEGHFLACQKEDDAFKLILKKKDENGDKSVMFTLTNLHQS
Nature of the test: sandwich ELISA, capture by test antibody, detection by anti-tag antibody.

Test [5] has as its target T3, human/murine IL-18 chimera in which C-terminal human IL-18 residues 92-193 were replaced by the corresponding … (human; mouse).
T3 construct: Mature form after caspase-1 cleavage; also called human (37-91)/murine IL-18 chimera; not shown: C-terminal V5 and His tags and any linker to them
T3 chain: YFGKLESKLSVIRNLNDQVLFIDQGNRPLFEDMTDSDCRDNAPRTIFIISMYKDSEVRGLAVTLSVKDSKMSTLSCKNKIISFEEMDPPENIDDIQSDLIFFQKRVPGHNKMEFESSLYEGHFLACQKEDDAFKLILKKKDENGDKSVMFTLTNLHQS
The description is as above.

Test [6] addresses T4, human/murine IL-18 chimera in which C-terminal human IL-18 residues 120-193 were replaced by the … (human; mouse).
T4 construct: Mature form after caspase-1 cleavage; also called human (37-119)/murine IL-18 chimera; not shown: C-terminal V5 and His tags and any linker to them
T4 chain: T3 chain with E56Q, V57P, L60M, L64I, D68C, S69E, M71I, K77E
Described as above.

Test [7] has as its target T5, human (37-176)/murine (174-192) IL-18 chimera (human; mouse, UniProt Q14116 37-188).
T5 chain: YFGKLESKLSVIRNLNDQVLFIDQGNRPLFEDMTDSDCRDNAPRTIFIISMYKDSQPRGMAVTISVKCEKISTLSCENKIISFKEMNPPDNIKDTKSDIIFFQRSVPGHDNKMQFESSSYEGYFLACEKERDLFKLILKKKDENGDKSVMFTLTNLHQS
The description is as above.

The target in test [8] is T5, human (37-176)/murine (174-192) IL-18 …. The test is described as follows: sandwich ELISA: tagged IL-18 chimera captured by the test antibody, detected with an anti-tag antibody. Background: An ELISA detects its analyte on a solid surface through an enzyme-linked reagent.

B1: ABT-325, recombinant human immunoglobulin G1 (IgG1) monoclonal antibody specific for human IL-18 (antibody, V domains shown)
VH: EVQLVQSGTEVKKPGESLKISCKGSGYTVTSYWIGWVRQMPGKGLEWMGFIYPGDSETRYSPTFQGQVTISADKSFNTAFLQWSSLKASDTAMYYCARVGSGWYPYTFDIWGQGTMVTVSS
VL: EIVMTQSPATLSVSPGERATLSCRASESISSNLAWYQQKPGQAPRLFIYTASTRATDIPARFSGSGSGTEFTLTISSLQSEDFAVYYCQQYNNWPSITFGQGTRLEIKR
notes: IgG1 kappa
B1: in test [1], the “IC50, human myelomonocytic cell line KG-1 bioassay; IL-18Rα/β-driven IFN-γ production” value is 0.2 nM. In test [2], the “IC50, whole blood assay; LPS+IL-12-driven IFN-γ production” value is roughly 3 nM. For the same molecule, the Kd (commonly the constant that tells how readily two partners part at equilibrium) in test [3] is roughly 0.2 nM. For the same molecule, the binding result in test [4] was “no binding”; in test [5], “no binding”; in test [6], “no binding”; in test [7], “binds”.

B2: 125-2H, neutralizing murine immunoglobulin G1 (IgG1) monoclonal antibody specific for human IL-18 (antibody, V domains shown)
VH: EIQLQQSGPELVKPGASVKVSCKASGYSFTDYFIYWVKQSHGKSLEWIGDIDPYNGDTSYNQKFRDKATLTVDQSSTTAFMHLNSLTSEDSAVYFCARGLRFWGQGTLVTVSA
VL: DIQMTQSPSSLSASLGERVSLTCRASQDIGSKLYWLQQEPDGTFKRLIYATSSLDSGVPKRFSGSRSGSDYSLTISSLESEDFVDYYCLQYASSPYTFGGGTKLAIKR
notes: Murine IgG1
B2: the “IC50, human myelomonocytic cell line KG-1 bioassay; IL-18Rα/β-driven IFN-γ production” value in test [1] came out at 0.2 nM. In addition, the “IC50, whole blood assay; LPS+IL-12-driven IFN-γ production” value in test [2] was roughly 3 nM. This molecule also had a Kd in test [3] of roughly 0.2 nM. Besides, in test [8], the binding result is on record as “no binding”.
